Results as given in US20260308278 (published 2026).
Substitutions are numbered along the chain they refer to.

B1: P1AH1205 (antibody, V domains shown)
VH: KVQLVESGGGLVQPGGSLRLSCAASGFKWEHYAMSWVRQAPGKGLEWVGSISPRGDHKYYNTKFIDRFTISRDNDKNTLYLQMNSLRAEDTAVYYCARDWDYFDRWGQGTLVTVSS
VL: AIQMTQSPSSLSASVGDRVTITCQSQFWLSNYLAWYQQKPGKAPKLLIFDGDLPYERPSRFSGSGSHDEYTLTISSLQPEDFATYYCQQYREEPYTFGQGTKLEIK
B2: P1AG9372 (antibody, V domains shown)
VH: EVQLVESGGGLVQPGGSLRLSCAASGFRFDIYAMSWVRQAPGKGLEWVGEISPDGRTKYYNTKFIDRFTISRDNEKNTLYLQMNSLRAEDTAVYYCARDWEYFDNWGQGTLVTVSS
VL: B1 VL
B3: P1AG9391 (antibody, V domains shown)
VH: B2 VH with E1Q, R28K, F29Y, I31V, D54R, R56D, T57S
VL: B1 VL with S25A, Q26S, F27Y, L53I, Y55W, R57I, D68E, E92D, E93T
B4: P1AG9426 (antibody, V domains shown)
VH: B2 VH with E1Q, R28K, F29Y, I31V, D54R, R56D, T57S
VL: B1 VL with S25A, Q26S, F27Y, L53I, R57I, D68E, E93T
B5: P1AG9420 (antibody, V domains shown)
VH: B1 VH with K1R, K28R, W29Y, E30D, D56N, N74D, D75E, R105H
VL: B1 VL with S25A, Q26S, F27Y, L53I, R57I, D68E, E93T
B6: P1AH1199 (antibody, V domains shown)
VH: B2 VH with E1Q, R28K, F29Y, I31V, D54R, R56D, T57S
VL: B1 VL with S25A, Q26S, F27Y, L53I, Y55W, R57I, D68E, E92D, E93T
B7: P1AG9376 (antibody, V domains shown)
VH: B1 VH
VL: B1 VL
B8: P1AH1205 full Fab (antibody)
chain 1: KVQLVESGGGLVQPGGSLRLSCAASGFKWEHYAMSWVRQAPGKGLEWVGSISPRGDHKYYNTKFIDRFTISRDNDKNTLYLQMNSLRAEDTAVYYCARDWDYFDRWGQGTLVTVSSASTKGPSVFPLAPSSKSTSGGTAALGCLVKDYFPEPVTVSWNSGALTSGVHTFPAVLQSSGLYSLSSVVTVPSSSLGTQTYICNVNHKPSNTKVDKKVEPKSCD
chain 2: AIQMTQSPSSLSASVGDRVTITCQSQFWLSNYLAWYQQKPGKAPKLLIFDGDLPYERPSRFSGSGSHDEYTLTISSLQPEDFATYYCQQYREEPYTFGQGTKLEIKRTVAAPSVFIFPPSDEQLKSGTASVVCLLNNFYPREAKVQWKVDNALQSGNSQESVTEQDSKDSTYSLSSTLTLSKADYEKHKVYACEVTHQGLSSPVTKSFNRGEC
B9: P1AG9376 full IgG (antibody)
chain 1: KVQLVESGGGLVQPGGSLRLSCAASGFKWEHYAMSWVRQAPGKGLEWVGSISPRGDHKYYNTKFIDRFTISRDNDKNTLYLQMNSLRAEDTAVYYCARDWDYFDRWGQGTLVTVSSASTKGPSVFPLAPSSKSTSGGTAALGCLVKDYFPEPVTVSWNSGALTSGVHTFPAVLQSSGLYSLSSVVTVPSSSLGTQTYICNVNHKPSNTKVDKKVEPKSCDKTHTCPPCPAPEAAGGPSVFLFPPKPKDTLMASRTPEVTCVVVDVSHEDPEVKFNWYVDGVEVHNAKTKPREEQYNSTYRVVSVLTVLAQDWLNGKEYKCKVSNKALGAPIEKTISKAKGQPREPQVYTLPPSRDELTKNQVSLTCLVKGFYPSDIAVEWESNGQPENNYKTTPPVLDSDGSFFLYSKLTVDKSRWQQGNVFSCSVMHEALHNAYTQKSLSLSP
chain 2: B8 chain 2
B10: P1AG9391 full IgG (antibody)
chain 1: B9 chain 1 with K1Q, W29Y, E30D, H31V, S50E, H57S, D75E, D101E, R105N
chain 2: B8 chain 2 with S25A, Q26S, F27Y, L53I, Y55W, R57I, D68E, E92D, E93T
B11: P1AH1199 full Fab (antibody)
chain 1: B8 chain 1 with K1Q, W29Y, E30D, H31V, S50E, H57S, D75E, D101E, R105N
chain 2: B8 chain 2 with S25A, Q26S, F27Y, L53I, Y55W, R57I, D68E, E92D, E93T
B12: P1AG9426 full IgG (antibody)
chain 1: B9 chain 1 with K1Q, W29Y, E30D, H31V, S50E, H57S, D75E, D101E, R105N
chain 2: B8 chain 2 with S25A, Q26S, F27Y, L53I, R57I, D68E, E93T
B13: P1AG9372 full IgG (antibody)
chain 1: EVQLVESGGGLVQPGGSLRLSCAASGFRFDIYAMSWVRQAPGKGLEWVGEISPDGRTKYYNTKFIDRFTISRDNEKNTLYLQMNSLRAEDTAVYYCARDWEYFDNWGQGTLVTVSSASTKGPSVFPLAPSSKSTSGGTAALGCLVKDYFPEPVTVSWNSGALTSGVHTFPAVLQSSGLYSLSSVVTVPSSSLGTQTYICNVNHKPSNTKVDKKVEPKSCDKTHTCPPCPAPEAAGGPSVFLFPPKPKDTLMASRTPEVTCVVVDVSHEDPEVKFNWYVDGVEVHNAKTKPREEQYNSTYRVVSVLTVLAQDWLNGKEYKCKVSNKALGAPIEKTISKAKGQPREPQVYTLPPSRDELTKNQVSLTCLVKGFYPSDIAVEWESNGQPENNYKTTPPVLDSDGSFFLYSKLTVDKSRWQQGNVFSCSVMHEALHNAYTQKSLSLSP
chain 2: B8 chain 2

biological target: T1, human C3bBb (Bb from FB D279G/K350N/M458I) (human); assay: SPR, 25C
T1 sequence (P01024 23-1663, chain 1 of 2): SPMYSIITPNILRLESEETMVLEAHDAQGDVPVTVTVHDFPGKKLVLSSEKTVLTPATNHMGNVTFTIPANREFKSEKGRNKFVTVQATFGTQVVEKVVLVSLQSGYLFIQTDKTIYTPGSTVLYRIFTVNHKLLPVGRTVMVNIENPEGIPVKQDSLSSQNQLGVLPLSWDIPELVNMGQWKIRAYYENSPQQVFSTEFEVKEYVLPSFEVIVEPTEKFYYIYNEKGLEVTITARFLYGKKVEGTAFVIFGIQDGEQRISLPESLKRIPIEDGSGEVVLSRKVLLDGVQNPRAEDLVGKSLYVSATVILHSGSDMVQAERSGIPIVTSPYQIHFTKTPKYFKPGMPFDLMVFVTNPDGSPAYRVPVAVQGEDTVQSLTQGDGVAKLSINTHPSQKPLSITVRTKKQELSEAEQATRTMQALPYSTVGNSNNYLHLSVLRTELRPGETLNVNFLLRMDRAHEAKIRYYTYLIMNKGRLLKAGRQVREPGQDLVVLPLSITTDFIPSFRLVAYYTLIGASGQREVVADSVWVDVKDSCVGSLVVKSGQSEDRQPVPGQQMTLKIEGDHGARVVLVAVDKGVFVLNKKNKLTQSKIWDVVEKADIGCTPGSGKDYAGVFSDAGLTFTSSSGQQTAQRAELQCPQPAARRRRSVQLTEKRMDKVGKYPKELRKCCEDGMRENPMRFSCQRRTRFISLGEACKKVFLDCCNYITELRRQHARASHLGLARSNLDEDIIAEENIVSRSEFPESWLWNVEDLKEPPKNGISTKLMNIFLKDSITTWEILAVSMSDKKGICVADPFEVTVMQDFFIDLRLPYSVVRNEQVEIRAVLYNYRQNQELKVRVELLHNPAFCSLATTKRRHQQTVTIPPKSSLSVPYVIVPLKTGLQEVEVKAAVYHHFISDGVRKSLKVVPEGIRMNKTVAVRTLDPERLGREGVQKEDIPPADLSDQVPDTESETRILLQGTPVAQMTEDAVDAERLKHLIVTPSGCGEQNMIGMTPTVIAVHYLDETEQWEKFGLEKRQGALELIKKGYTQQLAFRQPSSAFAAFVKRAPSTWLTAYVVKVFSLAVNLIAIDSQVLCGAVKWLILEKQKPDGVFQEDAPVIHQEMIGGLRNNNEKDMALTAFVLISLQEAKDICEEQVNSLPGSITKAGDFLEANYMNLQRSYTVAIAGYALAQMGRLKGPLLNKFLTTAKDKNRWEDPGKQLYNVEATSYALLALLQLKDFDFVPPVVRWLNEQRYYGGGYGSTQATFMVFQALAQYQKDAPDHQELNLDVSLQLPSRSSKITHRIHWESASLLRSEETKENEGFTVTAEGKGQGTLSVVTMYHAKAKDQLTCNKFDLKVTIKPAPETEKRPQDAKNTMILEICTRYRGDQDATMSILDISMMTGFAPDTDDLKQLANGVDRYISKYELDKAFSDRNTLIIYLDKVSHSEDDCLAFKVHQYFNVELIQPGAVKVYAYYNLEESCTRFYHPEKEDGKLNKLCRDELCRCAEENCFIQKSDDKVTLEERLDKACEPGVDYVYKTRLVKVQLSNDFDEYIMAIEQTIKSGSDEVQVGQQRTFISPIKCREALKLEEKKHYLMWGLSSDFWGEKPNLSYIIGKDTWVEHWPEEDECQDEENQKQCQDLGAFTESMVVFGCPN
T1 sequence (P00751 260-764 D279G/K350N/M458I, chain 2 of 2, further chain): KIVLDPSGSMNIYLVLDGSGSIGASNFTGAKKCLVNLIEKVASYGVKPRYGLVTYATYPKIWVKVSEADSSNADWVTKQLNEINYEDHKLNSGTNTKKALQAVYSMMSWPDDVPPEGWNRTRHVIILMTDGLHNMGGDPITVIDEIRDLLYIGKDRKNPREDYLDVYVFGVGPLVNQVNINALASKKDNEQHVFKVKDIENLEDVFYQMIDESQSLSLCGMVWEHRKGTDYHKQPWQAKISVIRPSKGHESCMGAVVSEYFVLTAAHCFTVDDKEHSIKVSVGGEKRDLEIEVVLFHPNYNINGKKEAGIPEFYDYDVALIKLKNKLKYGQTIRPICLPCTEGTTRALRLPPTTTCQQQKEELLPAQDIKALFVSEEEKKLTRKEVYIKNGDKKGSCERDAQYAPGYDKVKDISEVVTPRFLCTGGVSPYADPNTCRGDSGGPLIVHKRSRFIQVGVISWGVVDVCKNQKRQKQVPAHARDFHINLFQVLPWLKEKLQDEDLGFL

| Kd | Binder |
| --- | --- |
| 16 pM | B1 |
| < 1 pM | B2 |
| < 1 pM | B3 |
| < 1 pM | B4 |
| < 1 pM | B5 |
| 30 pM | B6 |
| < 1 pM | B7 |

biological target: T1, human C3bBb (Bb from FB …); assay: SPR, 37C

| Kd | Binder |
| --- | --- |
| 95 pM | B1 |
| 11.6 pM | B2 |
| 1.6 pM | B3 |
| 14 pM | B4 |
| 11 pM | B5 |
| 200 pM | B6 |
| < 1 pM | B7 |

biological target: scFcRn (human, UniProt P55899); assay: SPR, pH 6.0, 25C

| binding result | Binder |
| --- | --- |
| no binding | B8 |
| no binding | B9 |
| no binding | B10 |
| no binding | B11 |
| no binding | B12 |
| no binding | B13 |
